From patent publication US20130344567, “METHOD FOR IMMOBILISING NUCLEIC LIGANDS” (LFB Biotechnologies, published 2013) come the findings set out here.

Holding throughout (settings): tags: recombinant human FVII produced in transgenic rabbit milk (FVII-TG)
For data set [1], the target named is T1, Factor VII (FVII/FVIIa, active Gla domain) (Homo sapiens, UniProt P08709;P08709 P08709:61-212,P08709:213-466). Nature of the data set: affinity chromatography; loading capacity 8.0 mg FVII/ml gel at 5.6 mg/ml aptamer; FVIIam yield in eluate 76.8%; Tris, 10 mM CaCl2, EDTA elution. On the procedure: (§1) The loading capacity (or in other words the retention capacity) of the affinity supports, expressed in mg of FVII per ml of gel, was evaluated by injection of a composition of recombinant human FVII in “Tp5” buffer (50 mM Tris, 10 mM CaCl₂, pH 7.5).
(§2) Table 3 below gives the loading capacity of the affinity supports as a function of the number of aptamers grafted at their surface.

The target in data set [2] is T1, Factor VII (FVII/FVIIa, active Gla …). Nature of the data set: affinity chromatography; FVIIam yield in eluate 73.8%, 1.1% not retained; 50 mM Tris, 10 mM CaCl2, 4 mM MgCl2, pH 7.5; EDTA elution.
Data set [3] has the same target. The data set is described as follows: affinity chromatography; 95% of FVII retained and eluted with EDTA (coupling pH 4.2); loading capacity 5.4 mg FVII/ml gel at 5.8 mg/ml aptamer; 50 mM Tris, 10 mM CaCl2, pH 7.5. On the procedure:
as §1, §2

B1: Mapt 2.2CS-PEG(C11) (ssDNA)
DNA: CCGCACGCTACGCGCATGAACCCGCGCACACGACTTGAAGTAGC
modifications: 5' amine hydrophilic C11 spacer (11-amino-3,6,9-trioxaundecan-1-yl), grafted on NHS-activated Sepharose 4 FF
For the molecule B1, the binding result in data set [1] is “binds”.

With CCGCACGCTACGCGCATGAACCCGCGCACACGACTTGAAGTAGC (ssDNA, 5' amine C6 spacer, grafted on NHS-activated Sepharose 4 FF) [Mapt 2.2CS C6], the binding result in data set [2] was “binds”.

B2: Mapt 2CS-PEG(C11) (oligo5) (ssDNA)
DNA: ATGCAGCCAGCCGCAGTGTAAGTGAATGCAGACATGGTCTAAGTG
modifications: 5' amine hydrophilic C11 spacer (11-amino-3,6,9-trioxaundecan-1-yl), grafted on NHS-activated Sepharose 4 FF
Regarding B2, the binding result in data set [3] was “binds”.
